Experiment: soluble fraction after stress (log2 fold change); higher = more stays soluble; pooled small domains, quantitative proteomics
Details: stress: pH 4
How it was run: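 How much of each domain stays soluble after acid stress, expressed as a fold change, is used to gauge aggregation propensity. Pooled custom libraries of small domains underwent pH 4 stress before high-throughput quantitative proteomics. A higher log2 value means more of the domain stayed soluble.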
In the case of “HMSGYAIVNNQPGRTLNLRNSPSQSNNIIGQIPSGTRLQLISRGETWSEVIFQTTRGFVMSSFLRFET”, the “soluble fraction (log2)” value is reported as -0.17.
With “HMTPFVINVDRHGAVIINEKTVDIDEAVVLARQERSQGKSILLAGDKKAPYEAIIRVLDALKQAG” the “soluble fraction (log2)” value was -0.464.
For “HMLDLPVRTINGRQYYYYEVRNRETVYGLSKRLGVTREEIVRYNPSMADGLKRGAILYFPVDEFSDRI”, the “soluble fraction (log2)” value was -0.0139.
With “HMGSDAFDISKLNLVGKTKESAESLLKENGFSVDTKEEASDTAAKGTVISYSPTKPKNGERVTLTVSSGK” the “soluble fraction (log2)” value was 0.243.
With “HMGYDVAEVKFRLIKLLRDSKIGISGVEISERLGINRVTMTKYLNIFSAEGVIGEKNIGNVNLWFVYEGIE” the “soluble fraction (log2)” value was -0.186.
With “HMDTNELIDRYVNEVGQHLPRKTRADIEMELRSLLLDTLEEQSGGEPTPKMAAEVLREFGHPEEIAAQYH” the “soluble fraction (log2)” value was -0.755.
For “HMNKFRVGDEVEIVKLDKTIQHFGGEEVLSPVGTKTYITYVDVTGKEIEIDKDIYSYHADDLTLV”, the “soluble fraction (log2)” value was -1.76.
In the case of “HMGDGAWQQGEGGRWWYKYNNGTYPKDRVVTIGGKKYGFDSEGWMLSDTTKAFGGTTYSFAADGVATAQA”, the “soluble fraction (log2)” value is reported as -0.247.
In the case of “HMNDTPPELRAALDLLGLKWPLASVELRARYKDLAKQHHPDATGGDKQAEERLKDINRAYSLLKHRLAKQ”, the “soluble fraction (log2)” value is reported as 0.144.
For “HMSHGNAALTPRQRLRLARLVVDDQWSVSAAAEFFRVSYPTAAKWARRYVELGPAGMADRSS”, the “soluble fraction (log2)” value was -0.0854.
With “HMGEVEVPDLVGIEAIQAKTLLFNSDFLIKEFYDYDPTQPIGVVIRQAPEAGTTQTIGDSVTITINRA” the “soluble fraction (log2)” value was -0.0721.
With “HMDIPGITAVKPQAAFYMFPKIDVKKFNIVNDEKFALDLLQDKKILIVQGSGFNWKQPDHFRVV” the “soluble fraction (log2)” value was 0.115.
In the case of “HMNKKLEMKIEQLDLSVRLFNSLKRSGIYTVAQIIKLTEEDVMRFRSLGRKSFKELKEKLSEHGLEFE”, the “soluble fraction (log2)” value is reported as -1.02.
For “HMNDGEIAAPVSGTLQSFKVEDGQTVSEGDLVAVMEAMKMETQILATKGGTIRLLVKEGDYLQAGHALMTI”, the “soluble fraction (log2)” value was -1.07.
With “HMKRAVGLDEYRDSIVLKKPEGYTEESYAAYKNAYDALMALDSKETTAEMFANAKSAFEAAQAGLVQKP” the “soluble fraction (log2)” value was 0.0195.
For “HMENFIPDDPKRIEIGMSVLHQRFGKGKVMQLEGNLPDMKATVNFEGEGQKQLLLKYARLKIV”, the “soluble fraction (log2)” value was -0.0241.
In the case of “HMITETIGANIKTLRDKFRMSQQDLASKMNTARPVISNWENGKTEPSSSQLLKLAKIFDTSTDKILGNV”, the “soluble fraction (log2)” value is reported as 0.345.
In the case of “HMKKNTEALDYYKKAGANFPEDEVISSEYLFRAAQLQEVLGKTDEAVAIYKDIKAKYPTTEIGLNVDKFIL”, the “soluble fraction (log2)” value is reported as -0.181.
For “HMRYLMPDLVNRRYEPVRSLLEARGIRFGNVIFEPYEGLPPGIVLRQDPPAGHPLPRRRTVSLVVSGPGGR”, the “soluble fraction (log2)” value was 0.109.
For “HMSGLGELTPRELEVLELMAQGLSNSQIAGRLFLSGAAVAKHVSSIFSKLGFEPGDENRRVRAILAFLNR”, the “soluble fraction (log2)” value was -0.751.
For “HMRSLVDRSVQAVTDHIRENALRVGDSLPGEAYFATSLGVSRAVMREAFGALAALRVIDVGNGRKPRVGAI”, the “soluble fraction (log2)” value was -0.438.
For “HMGGKWKPIILYYININSVARYSELKRFIPSINERMLTRQLRELEEDNLIERKVYPIVPPKVEYRLTEYGK”, the “soluble fraction (log2)” value was 0.0222.
With “HMENSYSVEDLALKAAISVDTIRYYQGLGLISPPQKNGRRAIYGNDHISRLEEIKKLAFEGFSLRQISLL” the “soluble fraction (log2)” value was 0.22.
In the case of “HMTEIILTARSGRHAVRHRLEGLGYTLTPEELERVHQRFLAVADAKKEVFDEDLHALMADERGT”, the “soluble fraction (log2)” value is reported as -0.467.
With “HMNKEVDLPNFVGMTKENAQAQADKIKIKLEFEEEYSSDVEEGKIISQNPEYKENYKIKEKSTVSLKI” the “soluble fraction (log2)” value was 0.0516.
In the case of “HMIMISKSFEINEDNINKRLDIFLTENLDGLSRGIVQKYISLEQITVNKESSHKDYRLKLDDFIEVKIQAH”, the “soluble fraction (log2)” value is reported as -1.06.
In the case of “HMQVSDANQLTDVVKSIIKQYPVEVEKYKSGKKALFGFFMGKVMENLKGKSNPKILKNVLTEILD”, the “soluble fraction (log2)” value is reported as 0.263.
With “HMVKNTIHVDLKGEVNKPGVYEVEEGTIVNDLITLANGFTKNAYQDNINLSKKLTDEMVIVVSKKGS” the “soluble fraction (log2)” value was -0.461.
In the case of “HMQADPYTVLGVLRDVTDGELKREYRKLVREHHPDALIAQGVPQEFVDIANNKLAVINAAYERIAKQRGL”, the “soluble fraction (log2)” value is reported as -0.293.
With “HMREGRERRLSQLLSYLRTHHILTRSEYVKLTGLSPTAASSELKTFVTAGHIVRKGIASHSTYRLPH” the “soluble fraction (log2)” value was 0.00826.
With “HMTDGLTVPMQGVVIRYKAKKGDKVAVGDAVAVLEAMKMEQNIFANKSGTIKEIYIKEGTTVTPGDVLMSI” the “soluble fraction (log2)” value was -0.89.
With “HMAAPELLTVRERQVAALISDGLSNQQIAHRLHLEVTTVKAHIGSIFNRLDMNNRVQIAIWAHDRQLVFS” the “soluble fraction (log2)” value was 0.0815.
With “HMAAGELSGEALIALIERHPMALSALATTFGHSESDLRAFVEPLARQGRLRLFESQGTLFVGGIG” the “soluble fraction (log2)” value was 0.00392.
In the case of “HMYKNLRAFRESLGMTQKDFAASLSIGLSTYNGYEVGAREPKSDFWIAVARKYGVTIDYLMGFSDDPHK”, the “soluble fraction (log2)” value is reported as 0.195.
For “HMRGPPQVLVDVELEDGRVGQIGVRNGDDATELAETFVRAFRLEQSFVGRLANVIQGKIRELLHSQ”, the “soluble fraction (log2)” value was -1.17.
In the case of “HMFDDEELDTFAGRQSDSYDQQEVEQFSDVLHTMRQDEVQAWWRSLTLRGISLPDELKDEVIML”, the “soluble fraction (log2)” value is reported as -1.6.
In the case of “HMELGYTPNNLRSVRAKYGLTQKQVAEITGLKTWHPVNRWEAPVEAAYHADMPHTKWLKLLDELSSR”, the “soluble fraction (log2)” value is reported as -0.0144.
For “HMSENEIDELRRRFAREAMALMERKGEEVSRTRLAAELSVARARIDAVFPEESDLLEAVTAEWFA”, the “soluble fraction (log2)” value was -0.799.
For “HMQVSDTNTLEQFAKEVIEANPKAVEDYHQNPLAIGFLVGQLMKVSKGSANPQTGKEILEKLL”, the “soluble fraction (log2)” value was -0.185.
With “HMPGLITLEAAKTTALNHAKLTADQVTFVKQKLDRDDGRQVYEIEFYTSDYKEYDYEIDAVSGLILEVDYD” the “soluble fraction (log2)” value was -0.33.
With “HMEKFTGELSQEEKNVLDALSHEEMHVDIIIKLTKLETSAVSSTLSLLEIKGLIKNIGGQNYIK” the “soluble fraction (log2)” value was -0.139.
With “HMQESTILPAQKSAISSLATSAGFSSENLKRYLLQNYGVDLKDLTRSQGAEVIKAFQSGNVSKP” the “soluble fraction (log2)” value was 0.246.
For “HMGTAEDYLLPRRAEILSIIRDHEFANFDLIRRRFLAVNERTLRYDLKKLSDLGLIKKLGKTRGVYYRAAK”, the “soluble fraction (log2)” value was at least 0.43.
In the case of “HMDIYLDDINRKILHLLSQGVKTKSLRDYIDLSMSAIEKRKKHLKDLFLIEDGKDETLLSEARKKGF”, the “soluble fraction (log2)” value is reported as -0.398.
For “HMQANLPFSELLADVDRGLISDVTIKGDQVSGHYTDGRTFNTFIPPEADLVRRLTEKNVRIAAVPD”, the “soluble fraction (log2)” value was -0.00341.
In the case of “HMALHLPTTTINGRQYYYFKSKEKITVYGLSKRLGLTRQEIVEHNPSAVDGIKRGSTLYFPVDEFAD”, the “soluble fraction (log2)” value is reported as -0.074.
In the case of “HMQLKKDTILSYIEEKLIDSYNSNKGFTTQEISVALNMQRTNVSAILNNLVKENKLVKTKGKPVRYFLSG”, the “soluble fraction (log2)” value is reported as -1.02.
With “HMHVSIAENIRRIRTQHDMTQEEFGKVAAVSAMAVSQWENGRAVPRMGAVQRIADYFNISKGEVID” the “soluble fraction (log2)” value was 0.121.
For “HMDDPTVILFDPKNGQRKIVKWKAGLTLYSARRSAGISSAAEATIQRAGKSLSGRTATALEPGDVIRW”, the “soluble fraction (log2)” value was 0.203.
For “HMKHMTMYEAAKIAKEVGAPKLWLTHYSPSMTRPEEFMDDVRKIFPAAYAAKDGWTMELNFDEG”, the “soluble fraction (log2)” value was -0.385.
In the case of “HMVEGTVKWFNDEKGFGFIEQEGGKDVFVHFSAINGSGRRTLHEGQRVTMEVTQGQKGPQAENVNP”, the “soluble fraction (log2)” value is reported as -0.436.
For “HMSVADNALSRQAIESRIALFIQNEDPNHPRSDADIQKELAQAGVVISRRAITKYRNHLHIPSASLRRR”, the “soluble fraction (log2)” value was -0.12.
With “HMTRTEYMAQLEKYLKKLPHKEFQEAITFFNEYFDEAGPEKETAIMEELGSPKEAASELITNILNRHI” the “soluble fraction (log2)” value was -0.101.
For “HMEVADAAQRKILQALQVQPLTVEQLSQELRTDTGDLLVSLSMMEITGLIRREAGNTFLAVFAPK”, the “soluble fraction (log2)” value was -0.598.
In the case of “HMIEDMQQYIKEIRQMVSGRLDMTRNLEDEEIRDTIAELVAEESRKQYMTLTEKREVIEGVFNSMR”, the “soluble fraction (log2)” value is reported as -0.687.
